Measurements published in the supplement of paper PMC6757056.
± gives the standard deviation of the averaged measurements.

B1: library; a variant is named by its letters at N, in order (parent)
chain: GCUGUCACCGGUGCUUGGUACGUUAUAUUCAGCCGGUCUGAUGAGUCUNNNNNNAGACGAAACAGC

Assays:
(6R,S)-folinic acid [1] = variants of: B1; assay: normalized RNA/DNA level without ligand (relative to sTRSVctl = 100) (log10 (% of sTRSVctl)); HEK293T overexpressing SLC46A1; higher = less ribozyme self-cleavage, higher mRNA level; conditions: without (6R,S)-folinic acid; ligand present: no
How it was run: (§1)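 HEK293T cells received ligand, where used, 1 h before being transfected with 4 µg per 6-well well of library plasmids encoding reporter-linked ribozyme switches. After 72 h, RNA was extracted with EDTA and sequenced. RNA level was derived from RNA reads per DNA read, normalized to a spiked-in non-cleaving sequence or the top sequences, then scaled and log-transformed. Values were ×100 then log10, the top set was 25 sequences, and the minimum was 100 DNA reads.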

(6R,S)-folinic acid [2] = variants of: B1; assay: normalized RNA/DNA level with ligand (relative to sTRSVctl = 100) (log10 (% of sTRSVctl)); HEK293T overexpressing SLC46A1; ligand concentration (+) RNA-Seq: 6 mM; higher = less ribozyme self-cleavage, higher mRNA level; conditions: with (6R,S)-folinic acid; ligand present: yes
How it was run: as §1

Variant | normalized RNA/DNA level without ligand (log10) ((6R,S)-folinic acid [1]) | normalized RNA/DNA level with ligand (log10) ((6R,S)-folinic acid [2])
GUGGUC | 2.02 ± 0.023 | 2 ± 0.029
GUGGUA | 1.913 ± 0.0048 | 1.97 ± 0.019
CUGCCA | 2.05 ± 0.027 | 2.04 ± 0.033
CUGCCU | 2.034 ± 0.011 | 2.003 ± 0.006
CUGCCG | 2.038 ± 0.012 | 2.075 ± 0.0058
CUGGCA | 1.999 ± 0.0069 | 1.98 ± 0.042
CUGGCC | 2.079 ± 0.011 | 2.03 ± 0.032
CUGGCG | 1.99 ± 0.026 | 2.03 ± 0.037
UUCGGU | 1.962 ± 0.013 | 2 ± 0.021
AUGUCA | 1.979 ± 0.0033 | 2.01 ± 0.016
AUGUCU | 1.993 ± 0.017 | 1.99 ± 0.02
AUGUCC | 2.04 ± 0.026 | 2.0107 ± 0.0015
AUGUCG | 1.93 ± 0.0088 | 1.99 ± 0.027
GUGUAU | 1.962 ± 0.0048 | 2.01 ± 0.022
CUGCUA | 2.02 ± 0.021 | 2.05 ± 0.031
CUGCUG | 2.044 ± 0.0052 | 2.03 ± 0.041
CUGCUU | 2.046 ± 0.013 | 2.04 ± 0.03
CUGCUC | 2.11 ± 0.053 | 2.02 ± 0.034
CUCUUU | 2.013 ± 0.011 | 2.02 ± 0.041
CUCUUG | 2.04 ± 0.021 | 2.03 ± 0.028
CUCUUC | 2.063 ± 0.0046 | 2.01 ± 0.024
AUCUGC | 2.06 ± 0.028 | 2.05 ± 0.052
AUCUGU | 2.004 ± 0.0032 | 2.06 ± 0.056
AUCUGA | 2.021 ± 0.016 | 2.02 ± 0.058

Variant | normalized RNA/DNA level without ligand (log10) ((6R,S)-folinic acid [1]) | normalized RNA/DNA level with ligand (log10) ((6R,S)-folinic acid [2])
GUGUGG | 1.908 ± 0.0095 | 2.03 ± 0.048
AUGCUC | 2.053 ± 0.0063 | 2.03 ± 0.053
AUGCUU | 2.006 ± 0.018 | 2.037 ± 0.014
AUGCUA | 2.021 ± 0.0056 | 2.01 ± 0.024
AUGCUG | 1.986 ± 0.003 | 2 ± 0.017
AUGACC | 2.046 ± 0.0045 | 2.024 ± 0.014
UUCUCU | 2.06 ± 0.032 | 2.05 ± 0.054
UUCUCA | 2.019 ± 0.003 | 2.04 ± 0.025
UUCUCG | 1.944 ± 0.0051 | 2.02 ± 0.056
UUCUCC | 2.083 ± 0.014 | 2.02 ± 0.038
CUGAGU | 2.052 ± 0.016 | 2.058 ± 0.015
CUGAGG | 1.948 ± 0.005 | 2.02 ± 0.029
CUGAGC | 2.0258 ± 0.00095 | 2.01 ± 0.019
GUGCAC | 1.935 ± 0.0098 | 2 ± 0.0049
GUGCAA | 1.975 ± 0.0071 | 1.999 ± 0.01
GUGCAG | 1.931 ± 0.0076 | 2.01 ± 0.021
GUGCAU | 1.973 ± 0.0054 | 2.02 ± 0.051
UUGGUA | 1.92 ± 0.021 | 1.999 ± 0.014
UUGGUC | 2.047 ± 0.0021 | 2.041 ± 0.003
UUGGUU | 2.014 ± 0.0096 | 2.052 ± 0.019
UUGUCG | 1.94 ± 0.032 | 2.03 ± 0.034
UUGUCC | 2.008 ± 0.0064 | 2.045 ± 0.02
UUGUCA | 1.976 ± 0.015 | 2.042 ± 0.0095
UUGUCU | 2.053 ± 0.0052 | 2.09 ± 0.022

Variant | normalized RNA/DNA level without ligand (log10) ((6R,S)-folinic acid [1]) | normalized RNA/DNA level with ligand (log10) ((6R,S)-folinic acid [2])
AUGCAG | 1.92 ± 0.022 | 2 ± 0.032
AUGCAU | 1.934 ± 0.011 | 2.006 ± 0.005
CUGUAG | 1.925 ± 0.016 | 2.02 ± 0.041
CUGUAA | 1.958 ± 0.018 | 2.02 ± 0.037
CUGUAC | 1.992 ± 0.017 | 2.013 ± 0.013
GUGCCA | 2.057 ± 0.015 | 2.006 ± 0.0095
GUGCCU | 2.02 ± 0.024 | 1.98 ± 0.039
GUGCCC | 2.032 ± 0.012 | 2.02 ± 0.074
CUGCGU | 2.059 ± 0.011 | 2.06 ± 0.039
CUGCGC | 2.06 ± 0.0038 | 2.009 ± 0.019
CUGCGA | 2.053 ± 0.0059 | 2.06 ± 0.037
CUGCGG | 2.052 ± 0.0072 | 2.066 ± 0.0066
GUGCGC | 1.965 ± 0.01 | 2.01 ± 0.057
GUGCGG | 1.968 ± 0.014 | 2.0481 ± 0.00061
AUGGAU | 1.889 ± 0.0038 | 2.01 ± 0.033
AUGCCA | 2.011 ± 0.0049 | 2.011 ± 0.01
AUGCCG | 1.979 ± 0.0032 | 2 ± 0.023
AUGCCU | 2.011 ± 0.0046 | 2.015 ± 0.0068
AUGCCC | 2.037 ± 0.016 | 2.02 ± 0.041
UUCUGU | 2.03 ± 0.023 | 2.047 ± 0.0083
UUCUGA | 2.016 ± 0.012 | 2.032 ± 0.0073
AUGGUC | 2.055 ± 0.0035 | 2.04 ± 0.029
CUGCAC | 2.037 ± 0.0035 | 2.015 ± 0.014
CUGCAU | 1.9723 ± 0.001 | 1.99 ± 0.044

Variant | normalized RNA/DNA level without ligand (log10) ((6R,S)-folinic acid [1]) | normalized RNA/DNA level with ligand (log10) ((6R,S)-folinic acid [2])
CUGCAA | 2.037 ± 0.02 | 2.05 ± 0.025
UUGGCG | 1.8766 ± 0.00065 | 2.03 ± 0.062
UUGGCA | 2.013 ± 0.011 | 2.06 ± 0.035
UUGGCC | 2.046 ± 0.019 | 2.03 ± 0.05
UUGGCU | 2.055 ± 0.0023 | 2.04 ± 0.041
GUCUCC | 2.032 ± 0.015 | 2.024 ± 0.0098
GUCUCA | 2.0197 ± 0.0003 | 2.01 ± 0.027
GUCUCU | 2.0436 ± 0.00093 | 2.03 ± 0.044
GUCUAA | 1.978 ± 0.0082 | 1.991 ± 0.014
GUCUAC | 2.004 ± 0.0042 | 2.02 ± 0.027
GUCUAG | 1.97 ± 0.028 | 2.0363 ± 0.0013
UUCUAC | 2.03 ± 0.029 | 1.98 ± 0.061
UUCUAU | 1.994 ± 0.0097 | 2.05 ± 0.04
AUCUAC | 2.013 ± 0.0088 | 2.03 ± 0.039
AUCUAU | 2.0163 ± 0.0016 | 2.03 ± 0.041
AUCUAA | 2.0002 ± 0.0016 | 2.01 ± 0.042
AUCUAG | 1.974 ± 0.013 | 2.021 ± 0.0074
AUGUAU | 1.94 ± 0.025 | 2.03 ± 0.027
AUGUAA | 1.938 ± 0.011 | 2 ± 0.023
AUGUAC | 1.959 ± 0.01 | 1.98 ± 0.025
GUGGCG | 1.993 ± 0.0028 | 2.015 ± 0.0038
GUGGCU | 2.047 ± 0.0085 | 2.06 ± 0.028
UUGGAC | 1.972 ± 0.015 | 1.98 ± 0.032
UUGGAU | 1.971 ± 0.012 | 2.022 ± 0.012

Variant | normalized RNA/DNA level without ligand (log10) ((6R,S)-folinic acid [1]) | normalized RNA/DNA level with ligand (log10) ((6R,S)-folinic acid [2])
UUGGGA | 1.881 ± 0.0033 | 2.03 ± 0.039
UUGGGC | 2.036 ± 0.0078 | 2.037 ± 0.0067
UUGUGA | 1.96 ± 0.0028 | 2.04 ± 0.031
UUGUGG | 1.888 ± 0.0042 | 2.06 ± 0.044
UUGUGC | 2.018 ± 0.0046 | 2.053 ± 0.02
AUCUUC | 2.07 ± 0.022 | 2.05 ± 0.045
AUCUUU | 2.07 ± 0.025 | 2.087 ± 0.017
AUGAGG | 1.812 ± 0.017 | 2.009 ± 0.013
CUCUAG | 2.001 ± 0.019 | 2.02 ± 0.083
CUCUAA | 1.997 ± 0.017 | 2.01 ± 0.044
CUCUAU | 2.012 ± 0.0028 | 2.03 ± 0.049
CUCUAC | 2.0423 ± 0.0006 | 2.04 ± 0.023
UUCUUU | 2.047 ± 0.0094 | 2.04 ± 0.035
UUCUUA | 2.032 ± 0.02 | 2.02 ± 0.081
UUCUUC | 2.05 ± 0.028 | 1.996 ± 0.012
UUCUUG | 1.914 ± 0.0095 | 2.02 ± 0.023
AUGGGC | 2.014 ± 0.0055 | 2.03 ± 0.041
AUGGGU | 1.82 ± 0.006 | 1.998 ± 0.0034
UUGAGU | 1.925 ± 0.015 | 1.96 ± 0.025
UUGAGC | 2.006 ± 0.005 | 2.05 ± 0.049
